Results on one substance are retold here after patent US10562957B2, “Albumin-purification method comprising a nanofiltration step, solution, and composition for therapeutic use containing the same” (LABORATOIRE FRANCAIS DU FRACTIONNEMENT ET DES …, priority 2004, dated 2020).

Where only a bound is given, the exact number is not on record here.

The target of the data set is von Willebrand factor (vWf) (Homo sapiens, UniProt P04275). The data set can be described thus: Stabilisation of vWf by nanofiltered albumin: freeze-drying and dry heating at 80° C. for 72 hours. It counts as physicochemical. Particulars: preliminary tests: vWf solution with glycine and arginine, no albumin, dry heating 80° C. As to the method:
The power of the nanofiltered albumin to stabilise von Willebrand factor (vWf) was assessed using dry heating tests of vWf at 80° C. for 72 hours.
These solutions are then submitted to freeze-drying (45±3 hours) and dry heating as defined above. After heating, the addition of purified water for injection (PWI) to the dry residues reconstitutes solutions A11-A12. The following parameters are analysed: appearance of the solution, dissolution time, activity of vWf and multimeric profile, as measured by electrophoresis.

Turning to “vWf: von Willebrand factor solution stabilised with glycine and arginine, without albumin”, the “activity of vWf (vWf:Ag) compared to the non-heated vWf” value is over 82% and the multimeric profile entry was “not maintained”.
